The values below come from paper PMC9584430, “ATP hydrolytic activity of purified Spf1p correlate with micellar lipid fluidity and is dependent on conserved residues in transmembrane helix M1” (PLoS ONE, 2022).

One series deals with T1, Spf1p (Saccharomyces cerevisiae, UniProt P39986).
T1 construct: gene SPF1; full length with C-terminal FLAG-RGS10His tag; expressed in spf1-deleted yeast (BY4741 background), purified, re-lipidated in mixed yeast polar lipid/detergent micelles; persistent dimer seen on SDS-PAGE
T1 sequence (P39986 1-1215): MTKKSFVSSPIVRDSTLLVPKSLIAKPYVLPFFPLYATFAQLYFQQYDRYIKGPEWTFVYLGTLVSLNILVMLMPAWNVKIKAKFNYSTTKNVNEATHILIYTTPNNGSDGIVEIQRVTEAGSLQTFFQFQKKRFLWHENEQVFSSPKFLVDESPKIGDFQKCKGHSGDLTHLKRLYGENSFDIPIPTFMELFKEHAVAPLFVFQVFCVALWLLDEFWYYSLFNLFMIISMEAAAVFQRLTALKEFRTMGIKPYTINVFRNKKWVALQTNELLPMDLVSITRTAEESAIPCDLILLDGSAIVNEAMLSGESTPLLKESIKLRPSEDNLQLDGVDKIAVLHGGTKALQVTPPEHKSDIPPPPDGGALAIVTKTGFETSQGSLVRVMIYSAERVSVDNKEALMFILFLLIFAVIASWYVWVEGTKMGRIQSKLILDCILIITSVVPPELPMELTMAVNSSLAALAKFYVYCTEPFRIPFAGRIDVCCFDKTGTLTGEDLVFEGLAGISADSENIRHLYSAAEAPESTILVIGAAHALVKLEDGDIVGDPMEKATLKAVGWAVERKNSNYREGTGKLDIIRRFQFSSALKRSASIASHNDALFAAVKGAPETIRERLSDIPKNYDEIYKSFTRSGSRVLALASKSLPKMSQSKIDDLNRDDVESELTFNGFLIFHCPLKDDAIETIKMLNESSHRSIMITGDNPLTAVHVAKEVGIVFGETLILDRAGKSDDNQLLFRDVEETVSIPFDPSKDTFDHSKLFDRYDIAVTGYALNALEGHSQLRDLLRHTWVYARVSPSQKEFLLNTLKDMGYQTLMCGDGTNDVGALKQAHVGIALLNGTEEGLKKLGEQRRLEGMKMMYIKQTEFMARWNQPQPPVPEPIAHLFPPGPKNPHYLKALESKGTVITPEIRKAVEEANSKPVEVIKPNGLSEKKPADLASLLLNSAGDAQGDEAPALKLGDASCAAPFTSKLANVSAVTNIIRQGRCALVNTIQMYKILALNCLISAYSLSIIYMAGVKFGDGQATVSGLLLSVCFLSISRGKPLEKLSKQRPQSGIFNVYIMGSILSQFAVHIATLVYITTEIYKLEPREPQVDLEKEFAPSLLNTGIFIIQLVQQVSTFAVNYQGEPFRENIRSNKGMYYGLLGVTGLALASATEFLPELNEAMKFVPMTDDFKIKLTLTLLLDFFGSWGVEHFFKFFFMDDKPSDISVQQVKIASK
The series is described as follows: ATPase assay, phosphate release (molybdate colorimetric). In kind it is biochemical. The text has this: ATPase assay, phosphate release (molybdate colorimetric) on Spf1p | Vanadate sensitivity of Spf1p in mixed YPL/OG micelles

Substrate in series [1]: Nc1ncnc2c1ncn2[C@@H]1O[C@H](COP(=O)(O)OP(=O)(O)OP(=O)(O)O)[C@@H](O)[C@H]1O
Described as above. It is filed as biochemical, Saccharomyces cerevisiae. The following applies: YPL/OG micelles (0.35% w/w OG); Mg2+; Michaelis-Menten fit. The text has this: ATPase assay, phosphate release (molybdate colorimetric) on Spf1p | ATP affinity of Spf1p in YPL/OG micelles

Series [2] concerns the molecule itself. Description: SDS-PAGE of the purified protein (band at twice the expected size); purified fractions run on SDS-PAGE gels, strongly denaturing conditions; bands of the full-length protein identified by mass spectrometry (S1 Fig).

Turning to `[O]=[V]([OH])([OH])[OH]` [vanadate], at Spf1p, the Ki was determined as 10.3 ± 0.747 µM.

B1: Saccharomyces cerevisiae P5A ATPase Spf1p (enzyme, UniProt P39986 1-1215, looked up)
chain: T1 sequence (P39986 1-1215)
notes: Spf1p, P5A-type ATPase of the endoplasmic reticulum, Saccharomyces cerevisiae, full length; The abstract speaks of a purified 'functional tagged version'; removal of the tag is not mentioned; also called full length Spf1p; full-length expression construct (Spf1p); not shown: FLAG, C-terminal, kept; RGS10His, C-terminal, kept
Regarding B1, the Km in series [1] came to 0.1332 ± 0.0189 mM. For the same molecule, the binding result in series [2] is recorded as “binds”.

Broadly, the Ki is the equilibrium dissociation constant of an inhibitor or competing ligand from its target. Higher therefore signals lower affinity. For orientation: Km means the concentration of substrate that gives half-maximal velocity.
